Measured values published in PMC2908316 (Journal of biomolecular screening, 2009).

Columns and labels:
[1] = target: T1, full-length RGS8, GST-fusion protein, biotinylated (UniProt P49804 1-180, biotin on amines (Biotin-NHS, 3:1 biotin:RGS)); experiment: flow cytometry protein interaction assay
T1 sequence (looked up): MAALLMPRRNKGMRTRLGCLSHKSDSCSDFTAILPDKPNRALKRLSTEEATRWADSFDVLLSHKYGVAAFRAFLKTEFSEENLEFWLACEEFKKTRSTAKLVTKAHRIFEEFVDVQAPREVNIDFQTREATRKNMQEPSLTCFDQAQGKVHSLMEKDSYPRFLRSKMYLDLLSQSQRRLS

[2] = target: T2, RGS7 RH domain, GST-fusion protein, biotinylated (UniProt P49802 333-448, biotin on amines (Biotin-NHS, 3:1 biotin:RGS)); experiment: flow cytometry protein interaction assay
T2 sequence (looked up): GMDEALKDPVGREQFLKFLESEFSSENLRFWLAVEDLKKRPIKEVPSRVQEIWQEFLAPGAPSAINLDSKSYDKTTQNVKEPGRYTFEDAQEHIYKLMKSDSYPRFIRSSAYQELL

bead-associated fluorescence, positive control mean (with AlF4-) [1]: 2060 | bead-associated fluorescence, positive control mean (with AlF4-) [2]: 948
B1: Rat Gαo, N-terminal 6X-HIS tagged, labeled with AlexaFluor 532 (natural protein, UniProt P59215 1-354, looked up)
chain: MGCTLSAEERAALERSKAIEKNLKEDGISAAKDVKLLLLGAGESGKSTIVKQMKIIHEDGFSGEDVKQYKPVVYSNTIQSLAAIVRAMDTLGVEYGDKERKADSKMVCDVVSRMEDTEPFSAELLSAMMRLWGDSGIQECFNRSREYQLNDSAKYYLDSLDRIGAADYQPTEQDILRTRVKTTGIVETHFTFKNLHFRLFDVGGQRSERKKWIHCFEDVTAIIFCVALSGYDQVLHEDETTNRMHESLMLFDSICNNKFFIDTSIILFLNKKDLFGEKIKKSPLTICFPEYPGSNTYEDAAAYIQTQFESKNRSPNKEIYCHMTCATDTNNIQVVFDAVTDIIIANNLRGCGLY
modifications: AlexaFluor 532 carboxylic acid succinimidyl ester label, 3:1 fluorophore:protein ratio
